Read-outs that look alike come from different tables or passages of the source. Ends that are not written are not given here. Some results are limits rather than exact numbers.

Targets include human GCGR (human) (UniProt P47871); human GIPR (human) (UniProt P48546); human GLP1R (human) (UniProt P43220); human GLP2R (human) (UniProt O95838).
The target in test [1] is chicken GCRP receptor (chicken).
For test [2] the target is unchanged. The source holds these as a separate data set.
Test [3] concerns the target chimeric chGCRPR/chGLP1R (chicken).
In test [4] the target is chimeric chGCRPR/huGLP1R (chicken | human) (UniProt P43220).
Test [5] concerns the target chicken GCRP receptor (chicken). Description: radioligand binding; competitive displacement on HEK293T cells transfected with GCRPR (300 ng DNA/well, 12-well plates); 100,000 cpm 125I-chGCRP without or with various concentrations of cold peptides, 1 h, binding buffer (serum-free DMEM with 0.1% BSA, pH 7.4); IC50 by nonlinear regression.
For test [6] the target is unchanged. The source holds these as a separate data set.
Test [7] has as its target medaka GCRP receptor (medaka).
The target in test [8] is Xenopus GCRP receptor (Xenopus).
Test [9] addresses chicken GCRP receptor (chicken). Description: radioligand binding; competitive displacement on HEK293T cells transfected with GCRPR (300 ng DNA/well, 12-well plates); 100,000 cpm 125I-chGCRP without or with various concentrations of cold peptides, 1 h, binding buffer (serum-free DMEM with 0.1% BSA, pH 7.4); IC50 by nonlinear regression. This is another data set of the same source.

The target of test [10] is Xenopus GCRP receptor (Xenopus). The source holds these as a separate data set.
For test [11] the target is unchanged. Description: radioligand binding; competitive displacement on HEK293T cells transfected with GCRPR (300 ng DNA/well, 12-well plates); 100,000 cpm 125I-chGCRP without or with various concentrations of cold peptides, 1 h, binding buffer (serum-free DMEM with 0.1% BSA, pH 7.4); IC50 by nonlinear regression.
For test [12] the target is unchanged. The description is as above. This is another data set of the same source.
In test [13] the target is medaka GCRP receptor (medaka). The source holds these as a separate data set.
Test [14] concerns the target medaka GCRP receptor (medaka). The source holds these as a separate data set.
For test [15], the target named is medaka GCRP receptor (medaka). As to the kind of experiment: radioligand binding; competitive displacement on HEK293T cells transfected with GCRPR (300 ng DNA/well, 12-well plates); 100,000 cpm 125I-chGCRP without or with various concentrations of cold peptides, 1 h, binding buffer (serum-free DMEM with 0.1% BSA, pH 7.4); IC50 by nonlinear regression.
For test [16], the target named is medaka GCRP receptor (medaka). The description is as above. This is another data set of the same source.

Chain of human GLP1R (human) (P43220 24-463): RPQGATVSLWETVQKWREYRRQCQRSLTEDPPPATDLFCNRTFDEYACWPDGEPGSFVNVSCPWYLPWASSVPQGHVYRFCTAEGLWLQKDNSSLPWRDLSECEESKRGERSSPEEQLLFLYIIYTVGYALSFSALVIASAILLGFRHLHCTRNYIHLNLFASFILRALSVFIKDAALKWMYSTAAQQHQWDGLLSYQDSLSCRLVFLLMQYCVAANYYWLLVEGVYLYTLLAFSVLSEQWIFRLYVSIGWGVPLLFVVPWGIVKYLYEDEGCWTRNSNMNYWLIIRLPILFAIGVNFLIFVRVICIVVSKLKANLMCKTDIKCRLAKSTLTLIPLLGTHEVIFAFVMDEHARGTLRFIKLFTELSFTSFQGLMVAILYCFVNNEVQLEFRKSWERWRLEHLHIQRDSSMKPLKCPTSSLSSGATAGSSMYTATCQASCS
Chain of chimeric chGCRPR/huGLP1R (chicken | human) (P43220 whole entry, change not shown): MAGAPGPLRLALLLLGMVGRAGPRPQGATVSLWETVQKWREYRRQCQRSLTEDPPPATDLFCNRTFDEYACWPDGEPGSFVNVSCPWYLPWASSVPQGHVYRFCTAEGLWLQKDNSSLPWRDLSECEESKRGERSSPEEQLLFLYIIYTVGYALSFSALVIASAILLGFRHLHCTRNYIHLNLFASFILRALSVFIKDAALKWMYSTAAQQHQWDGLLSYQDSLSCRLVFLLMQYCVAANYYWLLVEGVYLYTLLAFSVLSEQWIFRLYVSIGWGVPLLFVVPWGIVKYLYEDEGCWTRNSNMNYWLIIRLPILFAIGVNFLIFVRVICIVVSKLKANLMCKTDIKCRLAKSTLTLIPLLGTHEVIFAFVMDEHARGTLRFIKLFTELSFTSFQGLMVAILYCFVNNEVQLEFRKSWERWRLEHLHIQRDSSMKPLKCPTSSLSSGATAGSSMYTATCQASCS
Chain of human GCGR (human) (P47871 26-477): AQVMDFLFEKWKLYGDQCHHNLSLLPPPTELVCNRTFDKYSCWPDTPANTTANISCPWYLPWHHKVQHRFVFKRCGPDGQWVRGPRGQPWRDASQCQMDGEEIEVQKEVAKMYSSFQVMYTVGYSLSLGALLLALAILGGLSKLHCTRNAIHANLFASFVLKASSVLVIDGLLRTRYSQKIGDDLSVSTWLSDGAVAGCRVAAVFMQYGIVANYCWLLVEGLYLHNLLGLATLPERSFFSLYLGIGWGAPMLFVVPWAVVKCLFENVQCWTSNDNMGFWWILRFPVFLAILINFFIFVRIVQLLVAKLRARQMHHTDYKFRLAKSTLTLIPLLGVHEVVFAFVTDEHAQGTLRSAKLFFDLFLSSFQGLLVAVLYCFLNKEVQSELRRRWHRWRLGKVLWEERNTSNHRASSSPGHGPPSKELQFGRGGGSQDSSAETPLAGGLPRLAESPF
Chain of human GIPR (human) (P48546 22-466): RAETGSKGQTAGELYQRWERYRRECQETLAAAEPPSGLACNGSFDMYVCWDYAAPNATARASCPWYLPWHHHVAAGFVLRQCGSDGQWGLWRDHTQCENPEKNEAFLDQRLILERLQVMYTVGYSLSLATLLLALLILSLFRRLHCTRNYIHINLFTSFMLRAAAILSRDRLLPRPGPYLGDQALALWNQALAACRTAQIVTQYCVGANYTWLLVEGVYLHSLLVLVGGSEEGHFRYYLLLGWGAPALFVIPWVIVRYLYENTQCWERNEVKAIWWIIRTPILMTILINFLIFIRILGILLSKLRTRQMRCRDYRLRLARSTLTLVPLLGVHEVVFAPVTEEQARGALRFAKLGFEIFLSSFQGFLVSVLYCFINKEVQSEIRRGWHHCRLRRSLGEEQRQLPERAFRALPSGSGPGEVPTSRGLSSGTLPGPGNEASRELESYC
Chain of human GLP2R (human) (O95838 whole entry): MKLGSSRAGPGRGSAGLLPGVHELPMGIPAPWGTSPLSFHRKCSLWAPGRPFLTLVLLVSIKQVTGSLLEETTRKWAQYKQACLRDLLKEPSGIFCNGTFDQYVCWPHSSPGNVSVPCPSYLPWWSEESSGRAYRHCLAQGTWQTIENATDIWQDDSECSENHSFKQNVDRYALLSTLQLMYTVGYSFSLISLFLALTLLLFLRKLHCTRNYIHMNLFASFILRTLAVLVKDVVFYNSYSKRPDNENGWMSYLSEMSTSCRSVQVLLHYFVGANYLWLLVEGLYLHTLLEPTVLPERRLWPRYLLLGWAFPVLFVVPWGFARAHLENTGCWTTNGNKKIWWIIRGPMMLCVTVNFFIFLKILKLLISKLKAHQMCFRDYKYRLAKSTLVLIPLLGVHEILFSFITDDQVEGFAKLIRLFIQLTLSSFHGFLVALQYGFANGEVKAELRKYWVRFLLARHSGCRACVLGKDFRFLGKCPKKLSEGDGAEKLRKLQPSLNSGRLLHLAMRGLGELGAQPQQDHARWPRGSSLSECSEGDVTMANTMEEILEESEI

B1: Chicken GCRP (peptide)
peptide: HSEGTFTSDFTRYLDKMKAKDFVHWLINT
The term IC50 denotes the concentration needed to halve the response being measured. For B1, in test [1], the cAMP level by Glosensor-22F luminescence in HEK293T cells with the receptor: EC50 stood at 5.8 nM. Besides, the CRE-luc reporter, HEK293T cells with the receptor: EC50 was 0.32 nM in test [2]; 8.57 nM in [3]; 8.03 nM in the test with chicken GLP1R (chicken); 9.44 nM in test [4]; 42.7 nM in the test with human GCGR (human); 48.9 nM in the test with human GLP1R (human). Further, the CRE-luc reporter, HEK293T cells with the receptor: EC50 worked out at 592 nM with human GLP2R (human), 0.87 nM in [6], 33.7 nM in [7] and 5.86 nM in test [8]. Besides, the CRE-luc reporter, HEK293T cells with the receptor: Emax (fold induction) came out at 5.56 in test [2]; 7.3 in [3]; 19.2 in the test with chicken GLP1R (chicken); 62.9 in [4]; 6.32 in the test with human GCGR (human); 3.03 with human GIPR (human). Further, the CRE-luc reporter, HEK293T cells with the receptor: Emax (fold induction) was 19.8 in the test with human GLP1R (human); 6.32 in the test with human GLP2R (human); 6 in test [6]; 8.12 in test [7]; 30.1 in test [8]. Also, the values for the IC50 in test [5] and in test [9] were 43.5 nM and 43.6 nM, respectively.

B2: Xenopus GCRP (peptide)
peptide: HSEGTFSSDLTRYLDKMKAKDFVQWLMN
On to B2, for which, in test [10], the cAMP level by Glosensor-22F luminescence in HEK293T cells with the receptor: EC50 worked out at 46 nM. In addition, the CRE-luc reporter, HEK293T cells with the receptor: EC50 with human GCGR (human) was 182 nM; with human GLP1R (human), more than 1000 nM; in test [6], 1.18 nM; in test [7], 30.6 nM; in test [8], 2.24 nM. The CRE-luc reporter, HEK293T cells with the receptor: Emax (fold induction) was determined as 2.09 with human GCGR (human); 1.95 with human GIPR (human); 24.1 in the test with human GLP1R (human); 6.25 in test [6]; 8.1 in [7]; 30.4 in test [8]. The half-inhibitory concentration (IC50) in [11] amounted to 65.5 nM; in test [12], 63 nM.

B3: Human GIP (peptide)
peptide: YAEGTFISDYSIAMDKIHQQDFVNWLLAQKGKKNDWKHNITQ
The molecule B3 came in with a CRE-luc reporter, HEK293T cells with the receptor: Emax (fold induction) with human GIPR (human) of 5.21.

B4: Medaka GCRP (peptide)
peptide: HTDGMFTSDLTNYLDKMKAKNFVEWLAAIKQQE
For B4, the CRE-luc reporter, HEK293T cells with the receptor: EC50 was determined as 6.76 nM in test [13]; 175 nM in the test with human GCGR (human); 156 nM with human GLP1R (human); 68.2 nM in [6]; 6.84 nM in [7]; 94.6 nM in test [8]. The molecule further came in with a cAMP level by Glosensor-22F luminescence in HEK293T cells with the receptor: EC50 in test [14] of 1.15 nM. For the same molecule, the CRE-luc reporter, HEK293T cells with the receptor: Emax (fold induction) with human GCGR (human) worked out at 2.27; with human GIPR (human), 2.11; with human GLP1R (human) it was 20.9; in test [6], 6.93; in test [7], 7.9; in [8], 32. Besides, the IC50 in test [15] came to 327 nM; in test [16], 320 nM.

B5: Medaka GCG1 (peptide)
peptide: HSEGTFSNDYSKYLEDRKAQDFVRWLMNN
In test [7], B5 came in with a CRE-luc reporter, HEK293T cells with the receptor: EC50 of 108 nM and a CRE-luc reporter, HEK293T cells with the receptor: Emax (fold induction) of 4.26.

B6: Chicken GLP1 (peptide)
peptide: HAEGTYTSDITSYLEGQAAKEFIAWLVNGR
modifications: also: unexplained 'a' after last residue
Turning to B6, the CRE-luc reporter, HEK293T cells with the receptor: EC50 in test [2] was determined as 18.3 nM; in [3], 1.52 nM; in the test with chicken GLP1R (chicken), 0.2 nM; in test [4], 2.29 nM. The CRE-luc reporter, HEK293T cells with the receptor: Emax (fold induction) in test [2] amounted to 5.8; in [3], 12.6; in the test with chicken GLP1R (chicken) it was 28.2; in test [4] it was 91.9. In addition, the IC50 in test [5] and in test [11] was more than 1000 nM throughout.

B7: Chicken GIP (peptide)
peptide: YSEATLASDYSRTMDNMLKKNFVEWLLARREKKSDNVIEPY
Take B7: the CRE-luc reporter, HEK293T cells with the receptor: EC50 in test [6] worked out at 69.2 nM; in test [8] it was 274 nM. Besides, the results for the CRE-luc reporter, HEK293T cells with the receptor: Emax (fold induction) in test [6] and in [8] were 6.22 and 32.4, respectively.

B8: Chicken GLP2 (peptide)
peptide: HADGTFTSDINKILDDMAAKEFLKWLINTKVTQ
In test [6], B8 returned a CRE-luc reporter, HEK293T cells with the receptor: EC50 of 33.4 nM and a CRE-luc reporter, HEK293T cells with the receptor: Emax (fold induction) of 6.26.

Source of the values: publication PMC3679108, “A Novel Glucagon-Related Peptide (GCRP) and Its Receptor GCRPR Account for Coevolution of Their Family Members in Vertebrates” (PLoS ONE, 2013).
